Data on 1 molecule can be found in patent publication US20220332804A1 (CSL INNOVATION, published 2022).

Common to all, as to assay: SPR; KD relative to WT C2;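 note: biacore SPR at 37 °C, anti-C2 mAbs captured on an anti-human IgG chip, alanine or serine C2 surface mutants tested, KD from 1:1 fit compared with wild-type C2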
(In general: SPR reads the build-up and loss of mass on a sensor chip optically.)

Experiment [1] addresses T1, human C2 S469A (human, UniProt P06681 21-752).
T1 sequence: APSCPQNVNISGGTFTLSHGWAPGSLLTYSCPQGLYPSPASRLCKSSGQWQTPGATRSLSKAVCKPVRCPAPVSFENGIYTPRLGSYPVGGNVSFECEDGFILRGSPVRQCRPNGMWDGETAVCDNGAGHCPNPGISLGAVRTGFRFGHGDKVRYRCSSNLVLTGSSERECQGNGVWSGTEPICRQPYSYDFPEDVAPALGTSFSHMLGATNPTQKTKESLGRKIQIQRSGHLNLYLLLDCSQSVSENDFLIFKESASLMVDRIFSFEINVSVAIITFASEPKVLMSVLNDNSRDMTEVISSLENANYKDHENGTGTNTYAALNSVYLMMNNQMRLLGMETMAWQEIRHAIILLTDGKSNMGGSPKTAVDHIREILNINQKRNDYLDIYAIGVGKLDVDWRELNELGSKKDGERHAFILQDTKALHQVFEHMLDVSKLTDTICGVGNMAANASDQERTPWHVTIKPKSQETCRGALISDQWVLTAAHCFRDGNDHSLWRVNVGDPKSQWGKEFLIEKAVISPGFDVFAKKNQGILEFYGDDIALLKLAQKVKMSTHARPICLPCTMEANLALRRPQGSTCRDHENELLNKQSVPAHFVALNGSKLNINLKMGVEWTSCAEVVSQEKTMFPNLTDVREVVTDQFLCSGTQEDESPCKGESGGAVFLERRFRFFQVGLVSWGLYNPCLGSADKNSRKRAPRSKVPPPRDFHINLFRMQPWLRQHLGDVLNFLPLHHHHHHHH

Experiment [2] concerns the target T2, human C2 D269A (human, UniProt P06681 21-752).
T2 sequence: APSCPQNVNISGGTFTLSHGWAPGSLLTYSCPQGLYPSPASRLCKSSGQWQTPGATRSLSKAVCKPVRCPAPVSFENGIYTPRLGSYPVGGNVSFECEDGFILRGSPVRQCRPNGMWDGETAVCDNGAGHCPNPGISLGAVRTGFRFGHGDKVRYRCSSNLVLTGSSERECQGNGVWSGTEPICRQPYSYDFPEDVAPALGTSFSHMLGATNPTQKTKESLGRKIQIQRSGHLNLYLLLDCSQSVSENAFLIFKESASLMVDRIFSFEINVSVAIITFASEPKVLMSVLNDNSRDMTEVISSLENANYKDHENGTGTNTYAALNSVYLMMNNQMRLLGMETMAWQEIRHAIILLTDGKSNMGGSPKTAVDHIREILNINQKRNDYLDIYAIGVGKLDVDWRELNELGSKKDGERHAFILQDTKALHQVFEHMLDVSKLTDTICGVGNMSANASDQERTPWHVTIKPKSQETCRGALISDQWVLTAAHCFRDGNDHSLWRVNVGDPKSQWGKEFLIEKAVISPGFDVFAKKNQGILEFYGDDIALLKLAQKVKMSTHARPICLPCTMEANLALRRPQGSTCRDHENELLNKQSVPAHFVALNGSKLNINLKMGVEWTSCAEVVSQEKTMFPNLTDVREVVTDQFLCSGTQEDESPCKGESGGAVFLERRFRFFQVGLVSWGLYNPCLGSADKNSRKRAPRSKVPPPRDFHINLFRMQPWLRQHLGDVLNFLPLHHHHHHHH

Experiment [3] deals with T3, human C2 V448A (human, UniProt P06681 21-752).
T3 sequence: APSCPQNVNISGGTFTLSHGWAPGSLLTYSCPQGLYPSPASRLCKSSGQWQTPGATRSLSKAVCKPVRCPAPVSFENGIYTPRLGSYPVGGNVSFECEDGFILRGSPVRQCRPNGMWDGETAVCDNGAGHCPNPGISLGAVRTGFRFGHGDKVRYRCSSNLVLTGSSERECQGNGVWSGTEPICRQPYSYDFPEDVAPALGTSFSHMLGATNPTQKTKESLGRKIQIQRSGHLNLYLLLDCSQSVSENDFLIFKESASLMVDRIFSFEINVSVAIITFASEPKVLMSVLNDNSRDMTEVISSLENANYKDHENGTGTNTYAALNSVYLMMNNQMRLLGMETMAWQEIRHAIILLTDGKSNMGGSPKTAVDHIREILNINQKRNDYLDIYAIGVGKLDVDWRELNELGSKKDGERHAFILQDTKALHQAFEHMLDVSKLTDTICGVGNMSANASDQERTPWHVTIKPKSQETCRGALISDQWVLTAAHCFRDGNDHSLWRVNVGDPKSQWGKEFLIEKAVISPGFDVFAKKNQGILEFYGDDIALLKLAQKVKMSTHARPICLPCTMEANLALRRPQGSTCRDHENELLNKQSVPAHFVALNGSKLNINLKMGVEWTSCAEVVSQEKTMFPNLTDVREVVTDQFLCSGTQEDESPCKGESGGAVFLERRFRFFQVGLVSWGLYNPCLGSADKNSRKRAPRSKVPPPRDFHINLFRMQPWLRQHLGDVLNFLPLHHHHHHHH

Experiment [4] addresses T4, human C2 G427A (human, UniProt P06681 21-752).
T4 sequence: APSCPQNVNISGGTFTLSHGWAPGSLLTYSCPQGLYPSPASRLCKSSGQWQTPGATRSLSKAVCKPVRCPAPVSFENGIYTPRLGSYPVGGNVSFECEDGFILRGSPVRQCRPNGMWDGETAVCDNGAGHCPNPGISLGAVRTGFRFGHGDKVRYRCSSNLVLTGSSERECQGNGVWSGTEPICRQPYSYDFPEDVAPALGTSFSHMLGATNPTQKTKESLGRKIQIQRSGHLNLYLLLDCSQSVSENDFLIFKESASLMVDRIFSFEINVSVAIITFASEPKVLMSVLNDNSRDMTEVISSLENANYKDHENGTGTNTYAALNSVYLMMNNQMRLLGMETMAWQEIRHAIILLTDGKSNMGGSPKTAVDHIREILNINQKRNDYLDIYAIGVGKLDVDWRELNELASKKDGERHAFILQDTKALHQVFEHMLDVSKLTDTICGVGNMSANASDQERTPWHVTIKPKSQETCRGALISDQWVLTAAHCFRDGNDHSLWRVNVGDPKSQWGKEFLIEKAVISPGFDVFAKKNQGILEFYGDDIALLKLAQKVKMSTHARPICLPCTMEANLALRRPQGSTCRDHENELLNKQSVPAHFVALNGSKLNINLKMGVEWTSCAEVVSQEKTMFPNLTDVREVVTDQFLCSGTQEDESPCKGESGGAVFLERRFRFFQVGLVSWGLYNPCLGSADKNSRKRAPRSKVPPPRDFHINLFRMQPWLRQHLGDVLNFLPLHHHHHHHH

B1: RF16-214 (antibody, V domains shown)
VH: EVQLLESGGGLVQPGGSLRLSCAASGFTFSWYQMMWVRQAPGKGLEWVSRIYPSGGGTAYADSVKGRFTISRDNSKNTLYLQMNSLRAEDTAVYYCARDAGYGDNWGQGTLVTVSS
VL: QSALTQPPSVSVSPGQTASITCSGDKLGEKYASWYQQKAGQSPVMVIYQDRKRPSGIPERFSGSNSGNTATLTISGTQAMDEADYYCQAWDTRAVVFGGGTKLTVLG
B1: the Fold diff amounted to 3 fold in experiment [1], 1 fold in experiment [2], 0 fold in experiment [3] and 0 fold in experiment [4].
